In one assay the target is HLA-A*02:01. The assay can be described thus: IEDB peptide-MHC binding, purified MHC/direct/fluorescence; filed as Kd, often an IC50 or EC50 that approximates it; ≥ and ≤ were set here for values at or beyond the usual limits of such assays.
The next assay deals with HLA-A*02:03. The assay is described as above. As to conditions: source organism: Variola virus.
The target in another assay is HLA-A*02:06. The assay is described as above.
The target in the next assay is HLA-A*69:01. The assay is described as above. The note with it: source organism: Camelpox virus CMS.
A further assay deals with HLA-A*02:11. The assay is described as above. The note with it: source organism: Entamoeba histolytica HM-1:IMSS.
Another assay concerns the target HLA-A*02:12. Described as above. The note with it: source organism: Entamoeba histolytica HM-1:IMSS.
Another assay concerns the target HLA-A*02:16. The assay is described as above.
Another assay addresses HLA-A*02:19. The description is as above. As to conditions: source organism: Entamoeba histolytica HM-1:IMSS.
Another assay addresses HLA-A*03:01. The description is as above.
Another assay concerns the target HLA-A*23:01. The assay is described as above.
In a further assay the target is HLA-A*24:03. The assay is described as above.
Another assay deals with HLA-A*26:01. Described as above. As to conditions: source organism: Entamoeba histolytica HM-1:IMSS.
A further assay addresses HLA-A*29:02. The description is as above.
The next assay deals with HLA-B*15:01. The description is as above.
Another assay deals with HLA-B*15:17. The description is as above.
The target of the next assay is HLA-B*27:03. The assay is described as above.
A further assay addresses HLA-B*39:01. The assay is described as above.
Assay [1] deals with HLA-B*40:01. The assay is described as above. The note with it: source organism: Entamoeba histolytica HM-1:IMSS.
Another assay concerns the target HLA-B*46:01. The description is as above.
In another assay the target is HLA-B*51:01. The description is as above.
A further assay deals with HLA-B*57:01. The description is as above.
The next assay concerns the target HLA-A*01:01. The assay can be described thus: IEDB peptide-MHC binding, purified MHC/competitive/fluorescence; filed as Kd, often an IC50 or EC50 that approximates it; ≥ and ≤ were set here for values at or beyond the usual limits of such assays.
A further assay deals with HLA-A*11:01. The description is as above.
The target of another assay is HLA-A*30:01. The description is as above.
A further assay addresses HLA-A*30:02. The description is as above.
For a further assay, the target named is HLA-A*66:01. The description is as above.
The next assay addresses HLA-B*07:02. Described as above.
The next assay concerns the target HLA-B*08:01. The description is as above.
The next assay addresses HLA-B*14:02. The description is as above.
For a further assay, the target named is HLA-B*27:05. The description is as above.
In a further assay the target is HLA-B*44:02. The description is as above.
A further assay has as its target HLA-B*53:01. The description is as above.
The target in another assay is HLA-B*58:01. Described as above.
A further assay has as its target HLA-A*68:02. The assay can be described thus: IEDB peptide-MHC binding, purified MHC/direct/fluorescence; filed as Kd, often an IC50 or EC50 that approximates it; ≥ and ≤ were set here for values at or beyond the usual limits of such assays. As to conditions: source organism: Burkholderia mallei ATCC 23344.
For a further assay, the target named is HLA-B*18:01. Described as above. As to conditions: source organism: Burkholderia mallei ATCC 23344.
For assay [2], the target named is HLA-B*40:01. The assay can be described thus: IEDB peptide-MHC binding, purified MHC/competitive/fluorescence; filed as Kd, often an IC50 or EC50 that approximates it; ≥ and ≤ were set here for values at or beyond the usual limits of such assays. As to conditions: source organism: Burkholderia mallei SAVP1.
Where [3] appears, read: source organism: Entamoeba histolytica HM-1:IMSS.
Setting [4] is: source organism: Burkholderia mallei ATCC 23344.
The mark [5] stands for this setting: source organism: Burkholderia mallei SAVP1.

Three sequences from the Immune Epitope Database (IEDB) can be followed below.

As a reminder, the Kd is the equilibrium constant for the complex coming apart. Low values mean tighter binding, high ones weaker binding.

DLYDMIHNV: the dissociation constant Kd was 0.0159 µM with HLA-A*02:01 (source organism: Camelpox virus CMS), 0.006 µM with HLA-A*02:03, 0.076 µM with HLA-A*02:06 (source organism: Variola virus) and 0.002 µM with HLA-A*69:01.

With IESNPLFPV, the Kd is at least 20 µM with HLA-A*02:01 (setting [3]); 0.034 µM with HLA-A*02:06 (setting [3]); at least 20 µM with HLA-A*02:11; 0.922 µM with HLA-A*02:12; at least 20 µM with HLA-A*02:16 (setting [3]); at least 20 µM with HLA-A*02:19. Further, the Kd with HLA-A*03:01 (setting [3]), with HLA-A*23:01 (setting [3]), with HLA-A*24:03 (setting [3]), with HLA-A*26:01, with HLA-A*29:02 (setting [3]) and with HLA-B*15:01 (setting [3]) was at least 20 µM throughout. The Kd with HLA-B*15:17 (setting [3]) is at least 20 µM; with HLA-B*27:03 (setting [3]) it was at least 20 µM; with HLA-B*39:01 (setting [3]), at least 20 µM; with HLA-B*40:01 [1] it was 0.051 µM; with HLA-B*46:01 (setting [3]) it was at least 20 µM; with HLA-B*51:01 (setting [3]), at least 20 µM. Besides, the Kd with HLA-B*57:01 (setting [3]) is at least 20 µM; with HLA-A*01:01 (setting [3]), at least 5 µM; in the assay with HLA-A*11:01 (setting [3]), at least 5 µM; with HLA-A*30:01 (setting [3]), at least 5 µM; in the assay with HLA-A*30:02 (setting [3]), at least 5 µM; with HLA-A*66:01 (setting [3]) it was at least 5 µM. Further, the equilibrium dissociation constant (Kd) with HLA-B*07:02 (setting [3]), with HLA-B*08:01 (setting [3]), with HLA-B*14:02 (setting [3]), in the assay with HLA-B*27:05 (setting [3]), in the assay with HLA-B*44:02 (setting [3]) and with HLA-B*53:01 (setting [3]) was at least 5 µM each time. This sequence yielded a Kd with HLA-B*58:01 (setting [3]) of at least 5 µM.

On to NVMDPMHGA, for which the dissociation constant Kd in the assay with HLA-A*02:01 (setting [4]), with HLA-A*02:16 (setting [4]), with HLA-A*03:01 (setting [4]), in the assay with HLA-A*23:01 (setting [4]), in the assay with HLA-A*24:03 (setting [4]) and with HLA-A*29:02 (setting [4]) was at least 20 µM in each case. The Kd in the assay with HLA-A*68:02 was at most 0.001 µM; with HLA-B*15:01 (setting [4]) it was at least 20 µM; with HLA-B*15:17 (setting [4]), at least 20 µM; with HLA-B*18:01 it was at least 20 µM; with HLA-B*27:03 (setting [4]), at least 20 µM; in the assay with HLA-B*39:01 (setting [4]) it was at least 20 µM. The Kd with HLA-B*46:01 (setting [4]) is at least 20 µM; in the assay with HLA-B*51:01 (setting [4]), at least 20 µM; with HLA-B*57:01 (setting [4]), at least 20 µM; with HLA-A*01:01 (setting [5]) it was at least 5 µM; with HLA-A*11:01 (setting [5]), at least 5 µM; in the assay with HLA-A*30:01 (setting [5]), at least 5 µM. The Kd with HLA-A*30:02 (setting [5]), in the assay with HLA-A*66:01 (setting [5]), in the assay with HLA-B*07:02 (setting [5]), with HLA-B*08:01 (setting [5]), in the assay with HLA-B*14:02 (setting [5]) and with HLA-B*27:05 (setting [5]) was at least 5 µM in each case. In addition, the Kd with HLA-B*40:01 [2], in the assay with HLA-B*44:02 (setting [5]), with HLA-B*53:01 (setting [5]) and with HLA-B*58:01 (setting [5]) was at least 5 µM throughout.
